Here are results for six sequences from the Immune Epitope Database (IEDB).

One experiment concerns the target HLA-A*01:01. As to the kind of experiment: IEDB peptide-MHC binding, purified MHC/competitive/fluorescence; ≥ and ≤ were set here for values at or beyond the usual limits of such assays.
Another experiment has as its target HLA-A*02:01. The experiment is described as above. The following applies: source organism: Zaire ebolavirus.
For the next experiment, the target named is HLA-A*24:02. The experiment is described as above. The conditions noted are these: source organism: Zaire ebolavirus.
The target of the next experiment is HLA-A*11:01. The experiment is described as above.
In the next experiment the target is HLA-B*45:06. The experiment is described as follows: IEDB peptide-MHC binding, purified MHC/competitive/fluorescence; filed as Kd, often an IC50 or EC50 that approximates it; ≥ and ≤ were set here for values at or beyond the usual limits of such assays.
A further experiment deals with HLA-A*32:07. The description is as above.
The next experiment concerns the target HLA-B*83:01. The description is as above.
In another experiment the target is HLA-A*32:15. Described as above.
The target in another experiment is HLA-B*15:42. The description is as above.
In the next experiment the target is HLA-A*29:02. The description is as above. The conditions noted are these: source organism: Mycosarcoma maydis.
The target of another experiment is HLA-C*04:01. Described as above.
The next experiment has as its target HLA-C*05:01. The experiment is described as follows: IEDB peptide-MHC binding, purified MHC/direct/fluorescence; filed as Kd, often an IC50 or EC50 that approximates it; ≥ and ≤ were set here for values at or beyond the usual limits of such assays.
For another experiment, the target named is HLA-A*02:03. Described as above. The following applies: source organism: Mycobacterium tuberculosis str. Haarlem.
The target in another experiment is HLA-A*02:11. The description is as above. The conditions noted are these: source organism: Mycobacterium tuberculosis str. Haarlem.
A further experiment has as its target HLA-A*69:01. The experiment is described as above. The following applies: source organism: Mycobacterium tuberculosis.
The next experiment deals with HLA-C*14:02. Described as above.
A further experiment has as its target HLA-C*06:02. Described as above. The following applies: source organism: Mycobacterium tuberculosis variant bovis BCG str. Pasteur 1173P2.
The target of another experiment is HLA-C*15:02. The description is as above.
A further experiment has as its target HLA-C*07:02. Described as above. The following applies: source organism: Mycobacterium tuberculosis variant bovis BCG str. Pasteur 1173P2.
The target of a further experiment is HLA-C*08:02. The description is as above. The following applies: source organism: Mycobacterium tuberculosis str. Haarlem.
A further experiment has as its target HLA-A*26:01. The description is as above. The conditions noted are these: source organism: Mycobacterium tuberculosis.
Another experiment deals with HLA-B*58:01. As to the kind of experiment: IEDB peptide-MHC binding, purified MHC/competitive/fluorescence; filed as Kd, often an IC50 or EC50 that approximates it; ≥ and ≤ were set here for values at or beyond the usual limits of such assays. The following applies: source organism: Escherichia coli str. K-12 substr. MG1655.
The next experiment addresses HLA-B*39:01. Described as above. The conditions noted are these: source organism: Escherichia coli str. K-12 substr. MG1655.
In another experiment the target is HLA-C*03:03. As to the kind of experiment: IEDB peptide-MHC binding, purified MHC/direct/fluorescence; filed as Kd, often an IC50 or EC50 that approximates it; ≥ and ≤ were set here for values at or beyond the usual limits of such assays. The following applies: source organism: Escherichia coli str. K-12 substr. MG1655.
A further experiment deals with HLA-B*15:01. As to the kind of experiment: IEDB peptide-MHC binding, purified MHC/competitive/fluorescence; ≥ and ≤ were set here for values at or beyond the usual limits of such assays. The conditions noted are these: source organism: Vaccinia virus Copenhagen.
The target in a further experiment is HLA-A*03:01. Described as above. The conditions noted are these: source organism: Vaccinia virus Copenhagen.
The next experiment has as its target HLA-A*68:01. As to the kind of experiment: IEDB peptide-MHC binding, purified MHC/competitive/radioactivity; filed as Kd, often an IC50 or EC50 that approximates it; ≥ and ≤ were set here for values at or beyond the usual limits of such assays. The conditions noted are these: source organism: Vaccinia virus WR.
A further experiment deals with HLA-A*31:01. The experiment is described as above. The conditions noted are these: source organism: Vaccinia virus WR.
A further experiment deals with HLA-A*33:01. Described as above. The following applies: source organism: Vaccinia virus WR.
The mark [1] stands for this setting: source organism: Zaire ebolavirus.
Setting [2] is: source organism: Mycosarcoma maydis.
[3] abbreviates: source organism: Mycobacterium tuberculosis variant bovis BCG str. Pasteur 1173P2.
The mark [4] stands for this setting: source organism: Mycobacterium tuberculosis str. Haarlem.
The mark [5] stands for this setting: source organism: Escherichia coli str. K-12 substr. MG1655.
Where [6] appears, read: source organism: Vaccinia virus Copenhagen.

Turning to ITDKIDQII, the IC50 is 5.95 µM with HLA-A*01:01 (setting [1]), 5.02 µM with HLA-A*02:01, 8.7 µM with HLA-A*24:02 and 39.2 µM in the experiment with HLA-A*11:01 (setting [1]).

Turning to IPVHPRHPY, the Kd with HLA-B*45:06 (setting [2]) was ≥ 5 µM; with HLA-A*32:07 (setting [2]) it was 0.393 µM; with HLA-B*83:01 (setting [2]), 0.222 µM; with HLA-A*32:15 (setting [2]), 1.43 µM; in the experiment with HLA-B*15:42 (setting [2]), ≥ 5 µM; in the experiment with HLA-A*29:02 it was 0.938 µM. Moreover, in the experiment with HLA-C*04:01 (setting [2]), the equilibrium dissociation constant (Kd) is ≥ 5 µM.

With YMLDMTFPV, the dissociation constant Kd is 3.43 µM with HLA-C*05:01 (setting [3]); ≤ 0.001 µM with HLA-A*02:03; ≤ 0.001 µM with HLA-A*02:11; ≤ 0.001 µM in the experiment with HLA-A*69:01; 0.076 µM in the experiment with HLA-C*14:02 (setting [3]); ≥ 20 µM in the experiment with HLA-C*06:02. The Kd amounted to 0.407 µM in the experiment with HLA-C*15:02 (setting [3]) and 0.651 µM with HLA-C*07:02.

As to YTPEQWWPF, the Kd in the experiment with HLA-B*45:06 (setting [4]) was ≥ 5 µM; in the experiment with HLA-A*32:07 (setting [4]) it was 0.0229 µM; with HLA-B*83:01 (setting [4]), ≥ 5 µM; in the experiment with HLA-A*32:15 (setting [4]), 0.0382 µM; with HLA-B*15:42 (setting [4]) it was ≥ 5 µM; with HLA-C*04:01 (setting [4]) it was ≥ 5 µM. The Kd with HLA-C*08:02 is ≥ 20 µM; with HLA-A*26:01, 0.0114 µM; with HLA-C*14:02 (setting [4]), 0.969 µM; with HLA-C*15:02 (setting [4]), ≥ 20 µM.

Regarding AAAVAYPEL, the Kd with HLA-B*58:01 is ≥ 20 µM; in the experiment with HLA-B*39:01 it was ≥ 20 µM; in the experiment with HLA-C*05:01 (setting [5]), ≥ 20 µM; with HLA-C*14:02 (setting [5]), 2.99 µM; with HLA-C*03:03 it was 0.002 µM.

KSNAKCIEY: the IC50 amounted to 18.2 µM in the experiment with HLA-B*15:01, 41.8 µM with HLA-A*01:01 (setting [6]), 16.5 µM in the experiment with HLA-A*03:01 and 21.7 µM with HLA-A*11:01 (setting [6]). Moreover, the Kd is ≥ 24.7 µM with HLA-A*68:01, 0.347 µM with HLA-A*31:01 and ≥ 25.8 µM in the experiment with HLA-A*33:01.

What is called IC50 is the midpoint of a concentration-inhibition curve. Low values mean inhibition by little substance, high ones a need for much substance. Usually Kd stands for the concentration at which binding is half-saturated.
